Source: patent publication US20120114630

Molecular target: recombinant staphylokinase SAK-SY162

B1: microplasminogen variant Lys137Met (K137M) (protein)
chain: APSFDCGKPQVEPKKCPGRVVGGCVAHPHSWPWQVSLRTRFGMHFCGGTLISPEWVLTAAHCLEKSPRPSSYKVILGAHQEVNLEPHVQEIEVSRLFLEPTRKDIALLKLSSPAVITDKVIPACLPSPNYVVADRTECFITGWGETQGTFGAGLLMEAQLPVIENKVCNRYEFLNGRVQSTELCAGHLAGGTDSCQGDSGGPLVCFEKDKYILQGVTSWGLGCARPNKPGVYVRVSRFVTWIEGVMRNN
- conversion of inactive microplasminogen into active microplasmin, HPLC profile 10 min after addition of staphylokinase: ~85%
